The target in test [1] is T1, human neuropeptide Y2 receptor (human, UniProt P49146 1-381).
T1 construct: whole, on cells; also called hNPY2 receptor; hNPY2-R
T1 sequence (looked up): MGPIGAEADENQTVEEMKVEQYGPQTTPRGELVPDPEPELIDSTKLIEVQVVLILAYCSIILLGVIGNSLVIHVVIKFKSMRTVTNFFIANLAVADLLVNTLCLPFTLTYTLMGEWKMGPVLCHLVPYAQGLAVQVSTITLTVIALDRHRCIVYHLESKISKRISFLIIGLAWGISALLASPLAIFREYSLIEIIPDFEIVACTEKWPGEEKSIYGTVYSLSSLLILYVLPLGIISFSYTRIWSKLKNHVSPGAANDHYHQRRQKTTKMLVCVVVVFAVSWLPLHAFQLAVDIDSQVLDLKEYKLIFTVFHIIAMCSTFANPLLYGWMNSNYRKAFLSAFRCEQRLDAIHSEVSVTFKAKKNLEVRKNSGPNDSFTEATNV
As to the kind of experiment: RLB 6: apparent Ki of filtrate after incubation at pH 6.1-6.2.

Test [2] concerns the target T1, human neuropeptide Y2 receptor. As to the kind of experiment: ratio of apparent Ki, pH 8.1-8.2 over pH 7.1-7.2. Here is the method: (§1) The filtration RLB assay was carried out in 96-well plates in a final volume of 100 μl per well. Freeze-dried test peptides were dissolved in 100% dimethyl sulfoxide (DMSO) to stock solutions of 1 mM and serial dilutions were performed in assay buffer (50 mM HEPES, 5 mM MgCl₂, 1 mM CaCl₂, pH 7.4) containing 0.2% ovalbumin. […] Next, 80 μL membranes (HTS066M, ChemiSCREEN™ Human Neuropeptide Y2 Receptor Membrane Preparation, CHEMICON) were added to each well to give a final protein concentration of 0.5 μg/well. The plates were sealed and incubated at room temperature for 2 hours in a plate shaker set at 400 rpm. The incubation was stopped by vacuum filtration onto 0.5% poly-ethylene amine (PEI) presoaked GF/C filters using a 96-well FilterMate™ harvester (Perkin Elmer) followed by four washes with 300 μl/well ice-cold wash buffer (50 mM HEPES, 500 mM NaCl, pH7.4). Filter plates were then dried for 60 min at room temperature and the bottom of the plates was sealed with backing tape UniFilter-96. Finally, 50 μl/well scintillation counter cocktail (Microscint20, Packard) was added and the radioactivity was counted in the Packard TopCount NXT scintillation counter. IC₅₀ values (the half maximal inhibitory concentration of the agonist) were calculated by nonlinear regression analysis of sigmoidal dose-response curves.
(§2) Peptides (as TFA salts) were weighed out in a filter unit (Mini-UniPrep Syringeless Filter 0.45 μm, Whatman), and 0.1 M sodium diphosphate buffer at pH 6.4 or 7.4, respectively, or 0.2 M TRIS buffer at pH 8.3 was added to achieve 10 mg/ml final concentration. The peptide was (partially) dissolved by shaking the filter unit horizontally at approx. 400 rpm for 2 hours at room temperature. The sample was filtered to remove any insoluble particles.

Test [3] has the same target. As to the kind of experiment: RLB 7: apparent Ki of filtrate after incubation at pH 7.1-7.2. Here is the method:
as §1, §2

For test [4] the target is unchanged. As to the kind of experiment: RLB 8: apparent Ki of filtrate after incubation at pH 8.1-8.2. The procedure: as §1, §2
The target of a further test is T2, human NPY5 receptor (human, UniProt Q15761 1-445).
T2 sequence (looked up): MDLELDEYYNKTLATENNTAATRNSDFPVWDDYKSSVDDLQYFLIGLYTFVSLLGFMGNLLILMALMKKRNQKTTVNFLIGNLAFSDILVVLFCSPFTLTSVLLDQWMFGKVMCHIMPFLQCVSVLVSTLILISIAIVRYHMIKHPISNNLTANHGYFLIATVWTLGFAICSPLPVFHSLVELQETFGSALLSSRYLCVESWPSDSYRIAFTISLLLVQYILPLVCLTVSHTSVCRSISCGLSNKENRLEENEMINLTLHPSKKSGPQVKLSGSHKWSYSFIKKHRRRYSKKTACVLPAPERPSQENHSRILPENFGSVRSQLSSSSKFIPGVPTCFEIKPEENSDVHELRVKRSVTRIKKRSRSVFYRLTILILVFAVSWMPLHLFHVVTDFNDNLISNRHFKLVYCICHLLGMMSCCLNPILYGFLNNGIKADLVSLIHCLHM
As to the kind of experiment: cell-based or functional assay.

For test [5], the target named is T1, human neuropeptide Y2 receptor. As to the kind of experiment: cell-based or functional assay.
The target of a further test is T3, human NPY1 receptor (human, UniProt P25929 1-384).
T3 sequence (looked up): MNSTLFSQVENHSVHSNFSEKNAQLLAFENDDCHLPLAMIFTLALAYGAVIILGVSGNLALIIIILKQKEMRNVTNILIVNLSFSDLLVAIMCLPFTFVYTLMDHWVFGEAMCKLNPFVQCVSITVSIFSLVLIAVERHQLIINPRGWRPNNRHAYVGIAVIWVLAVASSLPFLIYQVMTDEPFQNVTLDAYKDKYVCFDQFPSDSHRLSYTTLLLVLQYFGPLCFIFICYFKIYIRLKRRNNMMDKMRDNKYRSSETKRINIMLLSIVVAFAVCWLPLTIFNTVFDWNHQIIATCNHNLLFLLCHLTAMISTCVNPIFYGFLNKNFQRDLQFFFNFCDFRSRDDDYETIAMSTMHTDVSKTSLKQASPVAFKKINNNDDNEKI
As to the kind of experiment: cell-based or functional assay.

A further test addresses human NPY4 receptor (human, UniProt P50391 1-375). As to the kind of experiment: cell-based or functional assay.
The target in test [6] is T1, human neuropeptide Y2 receptor. As to the kind of experiment: radioligand competition (125I-PYY(1-36)), hNPY2R membranes. In a few lines: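 Commercial human Y2 receptor membranes (0.5 μg protein/well) were incubated with peptide for 2 h at room temperature in 50 mM HEPES, 5 mM MgCl₂, 1 mM CaCl₂, pH 7.4, with 0.2% ovalbumin. Bound radioligand was separated on PEI-soaked GF/C filters and counted by scintillation, and IC₅₀ came from nonlinear sigmoidal regression.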
In general terms: In a radioligand displacement assay an active substance lowers the binding of a labelled ligand.

The target is the same in test [7]. As to the kind of experiment: ratio of apparent Ki, pH 6.1-6.2 over pH 7.1-7.2. The procedure:
as §1, §2

For test [8] the target is unchanged. As to the kind of experiment: radioligand competition (125I-PYY(1-36)), hY2R membranes; DMSO stock. Here is the method: as §1
Test [9] has the same target. As to the kind of experiment: cell-based or functional assay. The source holds these as a separate data set.

The values below come from patent US20210139548A1 (published 2021).

*1 amine or outer side, *2 acyl side, *3 side chain or, on linkers, in order; H or OH if unused. Side-chain parts run from the residue outwards. The star is where a group is joined. C18 diacid = O=C(O)CCCCCCCCCCCCCCCCC(=O)*; γGlu = O=C(O)[C@H](CCC(=O)[*:2])N[*:1]; Isovaleryl = CC(C)CC(=O)*; AEEA = NCCOCCOCC(=O)O A value given as a limit tells only on which side of the number the result lay.

human NPY4 receptor, sequence (P50391 whole entry): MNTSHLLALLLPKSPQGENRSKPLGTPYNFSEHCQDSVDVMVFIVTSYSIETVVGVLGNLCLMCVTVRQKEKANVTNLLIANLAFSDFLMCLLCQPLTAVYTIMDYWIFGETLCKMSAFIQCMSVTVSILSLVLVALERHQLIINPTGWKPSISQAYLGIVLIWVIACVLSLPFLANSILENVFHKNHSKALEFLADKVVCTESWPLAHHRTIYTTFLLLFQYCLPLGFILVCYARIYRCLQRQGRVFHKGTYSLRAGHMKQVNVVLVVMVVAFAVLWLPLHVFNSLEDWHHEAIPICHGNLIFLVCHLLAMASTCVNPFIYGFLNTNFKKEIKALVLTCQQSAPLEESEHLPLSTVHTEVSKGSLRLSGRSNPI

With Isovaleryl-APAK([AEEA-AEEA-γGlu-C18 diacid])PEEDASPEEIQRYYVSLRHYYNWLTRQRY-NH2 [Compound 23], the Ki in test [1] was 6.3 nM; in [3] it was 6.3 nM; in test [4], 6.3 nM; in test [6], 0.63 nM; in test [8] it was 4.9 nM. Also, in [2], the “RLB ratio (RLB8/RLB7)” value was determined as 1. In addition, the “EC50 (HTRF cAMP Gi assay)” value in the test with human NPY5 receptor is > 5000 nM; in test [5] it was 0.15 nM; with human NPY1 receptor it was > 5000 nM; with human NPY4 receptor, > 5000 nM. The “RLB ratio (RLB6/RLB7)” value in [7] was 1.

On to Isovaleryl-APEK([AEEA-AEEA-γGlu-C18 diacid])PEADASPEEIQRYYVSLRHYYNWLTRQRY-NH2 [Compound 53], for which the Ki is 3.4 nM in test [1]; 3.1 nM in [3]; 2.5 nM in [4]; 0.24 nM in test [6]; 2 nM in test [8]. The “RLB ratio (RLB8/RLB7)” value in test [2] was 0.8. In addition, the “EC50 (HTRF cAMP Gi assay)” value is > 5000 nM with human NPY5 receptor, 0.119 nM in [5], > 5000 nM with human NPY1 receptor and > 5000 nM with human NPY4 receptor. Moreover, the “RLB ratio (RLB6/RLB7)” value in test [7] was 1.1.

B1: Ref. 3 (peptide)
peptide: Isovaleryl-RPEK([AEEA-AEEA-γGlu-C18 diacid])PGEDASPEELQRYYVSLRAYYNWLTRQRY-NH2
SMILES: CC(C)CC(=O)N[C@@H](CCCNC(=N)N)C(=O)N1CCC[C@H]1C(=O)N[C@@H](CCC(=O)O)C(=O)N[C@@H](CCCCNC(=O)COCCOCCNC(=O)COCCOCCNC(=O)CC[C@H](NC(=O)CCCCCCCCCCCCCCCCC(=O)O)C(=O)O)C(=O)N1CCC[C@H]1C(=O)NCC(=O)N[C@@H](CCC(=O)O)C(=O)N[C@@H](CC(=O)O)C(=O)N[C@@H](C)C(=O)N[C@@H](CO)C(=O)N1CCC[C@H]1C(=O)N[C@@H](CCC(=O)O)C(=O)N[C@@H](CCC(=O)O)C(=O)N[C@@H](CC(C)C)C(=O)N[C@@H](CCC(N)=O)C(=O)N[C@@H](CCCNC(=N)N)C(=O)N[C@@H](Cc1ccc(O)cc1)C(=O)N[C@@H](Cc1ccc(O)cc1)C(=O)N[C@H](C(=O)N[C@@H](CO)C(=O)N[C@@H](CC(C)C)C(=O)N[C@@H](CCCNC(=N)N)C(=O)N[C@@H](C)C(=O)N[C@@H](Cc1ccc(O)cc1)C(=O)N[C@@H](Cc1ccc(O)cc1)C(=O)N[C@@H](CC(N)=O)C(=O)N[C@@H](Cc1c[nH]c2ccccc12)C(=O)N[C@@H](CC(C)C)C(=O)N[C@H](C(=O)N[C@@H](CCCNC(=N)N)C(=O)N[C@@H](CCC(N)=O)C(=O)N[C@@H](CCCNC(=N)N)C(=O)N[C@@H](Cc1ccc(O)cc1)C(N)=O)[C@@H](C)O)C(C)C
As for B1, in [9], the “EC50 (hY2 cAMP, HTRF cAMP Gi assay)” value is 0.375 nM. The Ki in test [6] turned out to be 1.69 nM.

B2: Compound 29 (peptide)
peptide: Isovaleryl-APEK([AEEA-AEEA-γGlu-C18 diacid])PEAPASPEELQRYYVELRHYYNWLTRQRY-NH2
SMILES: CC(C)CC(=O)N[C@@H](C)C(=O)N1CCC[C@H]1C(=O)N[C@@H](CCC(=O)O)C(=O)N[C@@H](CCCCNC(=O)COCCOCCNC(=O)COCCOCCNC(=O)CC[C@H](NC(=O)CCCCCCCCCCCCCCCCC(=O)O)C(=O)O)C(=O)N1CCC[C@H]1C(=O)N[C@@H](CCC(=O)O)C(=O)N[C@@H](C)C(=O)N1CCC[C@H]1C(=O)N[C@@H](C)C(=O)N[C@@H](CO)C(=O)N1CCC[C@H]1C(=O)N[C@@H](CCC(=O)O)C(=O)N[C@@H](CCC(=O)O)C(=O)N[C@@H](CC(C)C)C(=O)N[C@@H](CCC(N)=O)C(=O)N[C@@H](CCCNC(=N)N)C(=O)N[C@@H](Cc1ccc(O)cc1)C(=O)N[C@@H](Cc1ccc(O)cc1)C(=O)N[C@H](C(=O)N[C@@H](CCC(=O)O)C(=O)N[C@@H](CC(C)C)C(=O)N[C@@H](CCCNC(=N)N)C(=O)N[C@@H](Cc1c[nH]cn1)C(=O)N[C@@H](Cc1ccc(O)cc1)C(=O)N[C@@H](Cc1ccc(O)cc1)C(=O)N[C@@H](CC(N)=O)C(=O)N[C@@H](Cc1c[nH]c2ccccc12)C(=O)N[C@@H](CC(C)C)C(=O)N[C@H](C(=O)N[C@@H](CCCNC(=N)N)C(=O)N[C@@H](CCC(N)=O)C(=O)N[C@@H](CCCNC(=N)N)C(=O)N[C@@H](Cc1ccc(O)cc1)C(N)=O)[C@@H](C)O)C(C)C
For the molecule B2, the Ki in test [1] was 3.8 nM; in [3], 4.4 nM; in test [4], 2.3 nM; in test [6], 0.29 nM; in [8] it was 4.6 nM. Also, the “RLB ratio (RLB8/RLB7)” value in test [2] came to 0.5. Also, in test [7], the “RLB ratio (RLB6/RLB7)” value was 0.9.

For the molecule Isovaleryl-APAK([AEEA-AEEA-γGlu-C18 diacid])PEEDATPEELQRYYVSLRHYYNWLTRQRY-NH2 [Compound 106], the Ki came to 7.7 nM in test [1]; 9.3 nM in test [3]; 7.5 nM in test [4]; 0.66 nM in [6]; 6 nM in test [8]. The “RLB ratio (RLB8/RLB7)” value in test [2] came to 0.8. The “EC50 (HTRF cAMP Gi assay)” value is > 5000 nM in the test with human NPY5 receptor, 0.173 nM in test [5], > 5000 nM with human NPY1 receptor and > 5000 nM with human NPY4 receptor. The “RLB ratio (RLB6/RLB7)” value in test [7] came out at 0.8.
